Reference: patent US9688760B2, “Anti-leukocyte adhesion for the mitigation of potential adverse events caused by CD3-specific binding domains” (AMGEN RESEARCH (MUNICH) GMBH, priority 2013, dated 2017)

Tested on: HBMEC
Experiment: In vitro flow chamber: T cell-rolling on HBMEC, long-term conditions
Assay type: cell-based, human
Conditions: non-stimulated HBMEC, 45 min
Protocol: Human brain microvascular endothelial cells (HBMEC) (#1000, Sciencell Research Laboratories) or human umbilical vein endothelial cells (HUVEC) (#C-12200, Promocell) were used as endothelial cell-model. Cryopreserved HBMEC at passage 1 (>5×10^5 cells/ml) were first cultivated in fibronectin-coated Nunclon-treated 75 cm^2 cell culture flasks (#156499, Nunc) at 37° C. and 5% CO2 in a Heraeus Cytoperm 2 (Thermo Scientific) according to the manufacturer's instructions. Sub-cultivation of HBMEC was done with the Detach Kit (#C-41200, Promocell) consisting of HEPES-buffered balanced salt solution (#C-40000, Promocell), trypsin-EDTA solution (0.04%/0.03%) (#C-41000, Promocell) and trypsin neutralization solution (TNS, #C-41100, Promocell). Briefly, the medium was aspirated from the HBMEC-layer and cells were washed with 2 ml of HEPES-buffered balanced salt solution. Addition of 2 ml of trypsin-EDTA solution for 1-5 min at room temperature led to detachment of HBMEC from the flask bottom. Inactivation of trypsin-EDTA solution was performed by addition of 2 ml of trypsin neutralization solution to the cell suspension. Cells were centrifuged at 300 g for 4 min in a Heraeus Megafuge 40 (Thermo Scientific) and seeded at a cell density of 5×10^5 cells per gelatin-coated 75 cm^2 cell culture flask (#L7230, Biochrom). […]

B1: recombinant P-selectin: recombinant human P-selectin (#ADP3-050, R&D Systems) (protein)
chain: WTYHYSTKAYSWNISRKYCQNRYTDLVAIQNKNEIDYLNKVLPYYSSYYWIGIRKNNKTWTWVGTKKALTNEAENWADNEPNNKRNNEDCVEIYIKSPSAPGKWNDEHCLKKKHALCYTASCQDMSCSKQGECLETIGNYTCSCYPGFYGPECEYVRECGELELPQHVLMNCSHPLGNFSFNSQCSFHCTDGYQVNGPSKLECLASGIWTNKPPQCLAAQCPPLKIPERGNMTCLHSAKAFQHQSSCSFSCEEGFALVGPEVVQCTASGVWTAPAPVCKAVQCQHLEAPSEGTMDCVHPLTAFAYGSSCKFECQPGYRVRGLDMLRCIDSGHWSAPLPTCEAISCEPLESPVHGSMDCSPSLRAFQYDTNCSFRCAEGFMLRGADIVRCDNLGQWTAPAPVCQALQCQDLPVPNEARVNCSHPFGAFRYQSVCSFTCNEGLLLVGASVLQCLATGNWNSVPPECQAIPCTPLLSPQNGTMTCVQPLGSSSYKSTCQFICDEGYSLSGPERLDCTRSGRWTDSPPMCEAIKCPELFAPEQGSLDCSDTRGEFNVGSTCHFSCDNGFKLEGPNNVECTTSGRWSATPPTCKGIASLPTPGVQCPALTTPGQGTMYCRHHPGTFGFNTTCYFGCNAGFTLIGDSTLSCRPSGQWTAVTPACRAVKCSELHVNKPIAMNCSNLWGNFSYGSICSFHCLEGQLLNGSAQTACQENGHWSTTVPTCQAGPLTIQEALTYFGGAVASTIGLIMGGTLLALLRKRFRQKDDGKCPLNPHSHLGTYGVFTNAAFDPSP
What does the source list for B1?
mean T cell-rolling velocity±SD (T cells pre-incubated with 5 μg/ml recombinant P-selectin, +AMG 103 10 ng/ml): 402±93 μm/sec; mean T cell-rolling velocity±SD (−AMG 103, +rec. P-selectin 5 μg/ml): 384±70 μm/sec
